Laboratory results as given in publication PMC3916239, “Distinct DNA Binding Sites Contribute to the TCF Transcriptional Switch in C. elegans and Drosophila”.

Experiments:
POP-1 [1] = biological target: T1, POP-1 (Caenorhabditis elegans, UniProt Q10666 1-438); assay: EMSA; 10 mM Tris-HCl pH 7.5, 50 mM KCl, 1 mM DTT, 5 mM MgCl2, 0.05% NP-40, 50 ug/ml poly(dI-dC), glycerol; 20 ul; 5 min on ice then 25 min room temperature; 6% native gel; conditions: protein: recombinant, tags: 6xHis
T1 sequence: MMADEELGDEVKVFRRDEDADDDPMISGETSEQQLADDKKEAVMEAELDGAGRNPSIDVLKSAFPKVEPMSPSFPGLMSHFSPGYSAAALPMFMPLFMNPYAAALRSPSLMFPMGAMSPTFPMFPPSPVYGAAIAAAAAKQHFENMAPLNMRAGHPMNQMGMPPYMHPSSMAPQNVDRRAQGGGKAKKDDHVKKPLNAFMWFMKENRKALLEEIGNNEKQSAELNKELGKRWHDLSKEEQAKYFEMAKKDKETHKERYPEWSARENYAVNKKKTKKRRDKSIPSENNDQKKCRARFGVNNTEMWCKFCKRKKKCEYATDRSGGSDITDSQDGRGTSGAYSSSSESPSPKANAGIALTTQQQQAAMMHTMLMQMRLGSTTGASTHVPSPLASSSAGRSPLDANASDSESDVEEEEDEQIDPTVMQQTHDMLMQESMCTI

POP-1 [2] = biological target: T1, POP-1; assay: competition; no competition at 200-fold excess; 10 mM Tris-HCl pH 7.5, 50 mM KCl, 1 mM DTT, 5 mM MgCl2, 0.05% NP-40, 50 ug/ml poly(dI-dC), glycerol; 20 ul; 5 min on ice then 25 min room temperature; 6% native gel; conditions: protein: recombinant; tags: 6xHis

B1: ceh-22b WRE WT probe 69 bp (dsDNA)
DNA 1: TACGAGAAGCGGCGATTCAAGAGTTTCAAATAACTTCTCCACCGCCTTTTGAAGTTGCCGAAAATAGTT
DNA 2: AACTATTTTCGGCAACTTCAAAAGGCGGTGGAGAAGTTATTTGAAACTCTTGAATCGCCGCTTCTCGTA
B1: binds (POP-1 [1]; label: biotin (labeled probe)).

B2: psa-3 WRE WT probe 47 bp (dsDNA)
DNA 1: ACCGTTATGGCCGTGGAGGCTCTTTTGATGTGCAGCCGACAAGTACG
DNA 2: CGTACTTGTCGGCTGCACATCAAAAGAGCCTCCACGGCCATAACGGT
B2: binds (POP-1 [1]; label: biotin (labeled probe)).

B3: K08D12.3 long WT probe (dsDNA)
DNA 1: CTGGCACGCGGCCAACATTCGATTTTGGGACGATCGACACGTTCTGGCCACATTTTCTTTGATTTTTTCTGATTTCGCCGACTTTTTTC
DNA 2: GAAAAAAGTCGGCGAAATCAGAAAAAATCAAAGAAAATGTGGCCAGAACGTGTCGATCGTCCCAAAATCGAATGTTGGCCGCGTGCCAG
B3: binds (POP-1 [1]; label: biotin (labeled probe)).

B4: Y66D12A.9 probe (dsDNA)
DNA 1: TTGGCGCCGAGCACATATTTCCCATCGGAAGCTTTGAAATAGTCGAGCCCGCGGCCACTT
DNA 2: AAGTGGCCGCGGGCTCGACTATTTCAAAGCTTCCGATGGGAAATATGTGCTCGGCGCCAA
B4: no binding (POP-1 [1]; label: biotin).

B5: R05G6.5 probe (dsDNA)
DNA 1: CGGTCGCCGCGCCAATGTGCTTGCCTTTGAACTCTCAATTTGCTGTTGTGGCGTGAT
DNA 2: ATCACGCCACAACAGCAAATTGAGAGTTCAAAGGCAAGCACATTGGCGCGGCGACCG
B5: no binding (POP-1 [1]; label: biotin).

B6: K08D12.3 HMG mutant (dsDNA)
DNA 1: CTGGCACGCGGCCAACATTCGATTTTGGGACGATCGACACGTTCTGGCCACATTTTCTGTGCGTTTTTCTGATTTCGCCGACTTTTTTC
DNA 2: GAAAAAAGTCGGCGAAATCAGAAAAACGCACAGAAAATGTGGCCAGAACGTGTCGATCGTCCCAAAATCGAATGTTGGCCGCGTGCCAG
B6: no binding (POP-1 [2]).

B7: K08D12.3 Helper3 mutant (dsDNA)
DNA 1: CTGGCACGCGGCCAACATTCGATTTTGGGACGATCGACACGTTCTGGCCACATTTTCTTTGATTTTTTCTGATTTCTAATCAGTTTTTC
DNA 2: GAAAAACTGATTAGAAATCAGAAAAAATCAAAGAAAATGTGGCCAGAACGTGTCGATCGTCCCAAAATCGAATGTTGGCCGCGTGCCAG
B7: no binding (POP-1 [2]).
